We go through one protein from paper PMC9391438, “Structures of L-BC virus and its open particle provide insight into Totivirus capsid assembly” (Communications Biology, 2022).

The series deals with the molecule itself. The series is described as follows: cryo-EM structure; L-BC particles purified from yeast, vitrified in 20 mM Tris-HCl pH 7.5, 50 mM KCl, 10 mM MgCl2; empty particle 2.9 Å and virion 3.7 Å (icosahedral symmetry), open particle 10 Å (C5) and 12 Å (C1).

B1: L-BC virus capsid protein (Saccharomyces cerevisiae virus L-BCLa) (natural protein)
chain: MSSLLNSLLPEYFKPKTNLNINSSRVQYGFNARIDMQYEDDSGTRKGSRPNAFMSNTVAFIGNYEGIIVDDIPILDGLRADIFDTHGDLDMGLVEDALSKSTMIRRNVPTYTAYASELLYKRNLTSLFYNMLRLYYIKKWGSIKYEKDAIFYDNGHACLLNRQLFPKSRDASLESSLSLPEAEIAMLDPGLEFPEEDVPAILWHGRVSSRATCILGQACSEFAPLAPFSIAHYSPQLTRKLFVNAPAGIEPSSGRYTHEDVKDAITILVSANQAYTDFEAAYLMLAQTLVSPVPRTAEASAWFINAGMVNMPTLSCANGYYPALTNVNPYHRLDTWKDTLNHWVAYPDMLFYHSVAMIESCYVELGNVARVSDSDAINKYTFTELSVQGRPVMNRGIIVDLTLVAMRTGREISLPYPVSCGLTRTDALLQGTEIHVPVVVKDIDMPQYYNAIDKDVIEGQETVIKVKQLPPAMYPIYTYGINTTEFYSDHFEDQVQVEMAPIDNGKAVFNDARKFSKFMSIMRMMGNDVTATDLVTGRKVSNWADNSSGRFLYTDVKYEGQTAFLVDMDTVKARDHCWVSIVDPNGTMNLSYKMTNFRAAMFSRNKPLYMTGGSVRTIATGNYRDAAERLRAMDETLRLKPFKITEKLDFRVAAYAIPSLSGSNMPSLHHQEQLQISEVDAEPINPIGEDELPPDIE
notes: Capsid protein of Saccharomyces cerevisiae virus L-BCLa (L-BC), as found in virus particles from yeast; genome NC_001641.1; the model has 1316 resolved residues for the two copies (A and B) of the icosahedral asymmetric unit; The same chain takes two conformations (A and B) in the capsid; no density for it was resolved; also called A subunit; B subunit
Turning to B1, the stoichiometry N (usually a count of units in the complex or per binding partner) amounted to 120.
